From article PMC7652416

Key:
[1] = target: ClpX^ΔN (residues 62–424) T199V mutant (E. coli) (UniProt P0A6H1)
[2] = target: ClpX^ΔN (residues 62–424) T199S mutant (E. coli) (UniProt P0A6H1)
[3] = target: E. coli ClpX^∆N (residues 62–424) (E. coli) (UniProt P0A6H1)

Substance: GFP-ssrA
- KM of GFP-ssrA degradation by ClpX^∆N variant/ClpP (Michaelis-Menten fit) [1]: 89 µM
- KM of GFP-ssrA degradation by ClpX^∆N variant/ClpP (Michaelis-Menten fit) [2]: 6.3 µM
- KM of GFP-ssrA degradation by ClpX^∆N/ClpP (Michaelis-Menten fit) [3]: 1.3 µM
